Source: US20060257938A1, “Method of screening for drugs that block ligand binding to a lipid binding protein” (priority 2005, published 2006)
Several values for one entry are separate records, joined by “and”; a condition that tells them apart may be missing. Identical values can stand only once.

Columns and labels:
Type in all cases: binding
Details in all cases: response relative to ADIFAB2
[1] = Probe fluorescence ratio response to oleic acid relative to ADIFAB2
How it was run: (§1)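 Fluorescently labeled rat intestinal FABP variants were read at two emission wavelengths, near the unbound maximum (about 420 to 480 nm) and the FFA-bound maximum (about 495 to 580 nm). R = Fλ1/Fλ2 after subtracting probe-free intensity; ΔR = R+agent − R0, normalized to ADIFAB2 (rI-FABP-L72A).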

[2] = Probe fluorescence ratio response to linolenic acid relative to ADIFAB2
How it was run: as §1

[3] = Probe fluorescence ratio response to linoleic acid relative to ADIFAB2
How it was run: as §1

[4] = Probe fluorescence ratio response to arachidonic acid relative to ADIFAB2
How it was run: as §1

[5] = Probe fluorescence ratio response to palmitic acid relative to ADIFAB2
How it was run: as §1

B1: 74L, 72A (protein, listed as Rattus norvegicus)
chain: AFDGTWKVDRNENYEKFMEKMGINVVKRKLGAHDNLKLTITQEGNKFTVKESSNFRNIDVVFELGVDFAYSAALGTELTGTWTMEGNKLVGKFKRVDNGKELIAVREISGNELIQTYTYEGVEAKRIFKKE
modifications: PEPTIDE (1)...(131) wild-type rat intestinal fatty acid binding protein
[1]
  DR/DR OA: 0.19 and 0.188
[2]
  DR/DR LNA: 0.40 and 0.404
[3]
  DR/DR LA: 0.30 and 0.305
[4]; Arachidonic acid
  DR/DR AA: 0.22
[4]; arachidonic acid
  DR/DR AA: 0.222
[5]
  DR/DR PA: 0.36 and 0.361

B2: 74N, 72A (protein, listed as Rattus norvegicus)
chain: AFDGTWKVDRNENYEKFMEKMGINVVKRKLGAHDNLKLTITQEGNKFTVKESSNFRNIDVVFELGVDFAYSAANGTELTGTWTMEGNKLVGKFKRVDNGKELIAVREISGNELIQTYTYEGVEAKRIFKKE
modifications: PEPTIDE (1)...(131) wild-type rat intestinal fatty acid binding protein
[1]
  DR/DR OA: 1.52
[2]
  DR/DR LNA: 1.57
[3]
  DR/DR LA: 1.44
[4]; Arachidonic acid
  DR/DR AA: 1.62
[5]
  DR/DR PA: 1.38

B3: 74Q, 72A (protein, listed as Rattus norvegicus)
chain: AFDGTWKVDRNENYEKFMEKMGINVVKRKLGAHDNLKLTITQEGNKFTVKESSNFRNIDVVFELGVDFAYSAAQGTELTGTWTMEGNKLVGKFKRVDNGKELIAVREISGNELIQTYTYEGVEAKRIFKKE
modifications: PEPTIDE (1)...(131) wild-type rat intestinal fatty acid binding protein
[1]
  DR/DR OA: 0.74
[2]
  DR/DR LNA: 0.86
[3]
  DR/DR LA: 0.87
[4]; Arachidonic acid
  DR/DR AA: 0.81
[5]
  DR/DR PA: 0.43

B4: 74T, 72A (protein, listed as Rattus norvegicus)
chain: AFDGTWKVDRNENYEKFMEKMGINVVKRKLGAHDNLKLTITQEGNKFTVKESSNFRNIDVVFELGVDFAYSAATGTELTGTWTMEGNKLVGKFKRVDNGKELIAVREISGNELIQTYTYEGVEAKRIFKKE
modifications: PEPTIDE (1)...(131) wild-type rat intestinal fatty acid binding protein
[1]
  DR/DR OA: 0.70
[2]
  DR/DR LNA: 0.78
[3]
  DR/DR LA: 0.82
[4]; Arachidonic acid
  DR/DR AA: 0.76
[5]
  DR/DR PA: 0.37

B5: 78A3, 72A (protein, listed as Rattus norvegicus)
chain: AFDGTWKVDRNENYEKFMEKMGINVVKRKLGAHDNLKLTITQEGNKFTVKESSNFRNIDVVFELGVDFAYSAADGTEATGTWTMEGNKLVGKFKRVDNGKELIAVREISGNELIQTYTYEGVEAKRIFKKE
modifications: PEPTIDE (1)...(131) wild-type rat intestinal fatty acid binding protein
[1]
  DR/DR OA: 0.41
[2]
  DR/DR LNA: 0.50
[3]
  DR/DR LA: 0.44
[4]; Arachidonic acid
  DR/DR AA: 0.48
[5]
  DR/DR PA: 0.25

B6: 78C2, 72A (protein, listed as Rattus norvegicus)
chain: AFDGTWKVDRNENYEKFMEKMGINVVKRKLGAHDNLKLTITQEGNKFTVKESSNFRNIDVVFELGVDFAYSAADGTECTGTWTMEGNKLVGKFKRVDNGKELIAVREISGNELIQTYTYEGVEAKRIFKKE
modifications: PEPTIDE (1)...(131) wild-type rat intestinal fatty acid binding protein
[1]
  DR/DR OA: 0.19
[2]
  DR/DR LNA: 0.20
[3]
  DR/DR LA: 0.20
[4]; Arachidonic acid
  DR/DR AA: 0.15
[5]
  DR/DR PA: 0.09

B7: 78F1, 72A (protein, listed as Rattus norvegicus)
chain: AFDGTWKVDRNENYEKFMEKMGINVVKRKLGAHDNLKLTITQEGNKFTVKESSNFRNIDVVFELGVDFAYSAADGTEFTGTWTMEGNKLVGKFKRVDNGKELIAVREISGNELIQTYTYEGVEAKRIFKKE
modifications: PEPTIDE (1)...(131) wild-type rat intestinal fatty acid binding protein
[1]
  DR/DR OA: 1.83
[2]
  DR/DR LNA: 2.05
[3]
  DR/DR LA: 2.00
[4]; Arachidonic acid
  DR/DR AA: 2.04
[5]
  DR/DR PA: 0.91
